Measurements as given in the Human Domainome abundance scans (Beltran et al. 2025).
± gives the uncertainty stated by the source.

B1: CD2-associated protein, residues 109 to 169; numbered along this chain, Q9Y5K6 (parent)
chain: KKRQCKVLFEYIPQNEDELELKVGDIIDINEEVEEGWWSGTLNNKLGLFPSNFVKELEVTD

Variants of: B1
Test: abundance fitness (aPCA) (normalised: wild type 0, dead -1); higher = more abundant; growth selection in yeast, the domain comes from the species named
Details: Homo sapiens
In the case of KKRQCKVLFEYIPQNEDELELKVGDIIDINEEVEEGWWSGKLNNKLGLFPSNFVKELEVTD [T41K], the abundance fitness is reported as -0.229 ± 0.3. In the case of KKRQCKVLFEYIPQNEDELELKVGDIIDINEEVEEGWWSGMLNNKLGLFPSNFVKELEVTD [T41M], the abundance fitness is reported as -0.162 ± 0.12. Work on KKRQCKVLFEYIPQNEDELELKVGDIIDINEEVEEGWWSGRLNNKLGLFPSNFVKELEVTD [T41R] yielded an abundance fitness of -0.171 ± 0.12. Variant KKRQCKVLFEYIPQNEDELELKVGDIIDINEEVEEGWWSGNLNNKLGLFPSNFVKELEVTD [T41N] has an abundance fitness of -0.011 ± 0.45. KKRQCKVLFEYIPQNEDELELKVGDIIDINEEVEEGWWSGLLNNKLGLFPSNFVKELEVTD [T41L] gave an abundance fitness of -0.318 ± 0.095. Variant KKRQCKVLFEYIPQNEDELELKVGDIIDINEEVEEGWWSGYLNNKLGLFPSNFVKELEVTD [T41Y] has an abundance fitness of -0.065 ± 0.16. With KKRQCKVLFEYIPQNEDELELKVGDIIDINEEVEEGWWSGVLNNKLGLFPSNFVKELEVTD [T41V] the abundance fitness was 0.078 ± 0.09. KKRQCKVLFEYIPQNEDELELKVGDIIDINEEVEEGWWSGALNNKLGLFPSNFVKELEVTD [T41A] gave an abundance fitness of -0.182 ± 0.1. Work on KKRQCKVLFEYIPQNEDELELKVGDIIDINEEVEEGWWSGQLNNKLGLFPSNFVKELEVTD [T41Q] yielded an abundance fitness of -0.062 ± 0.13. KKRQCKVLFEYIPQNEDELELKVGDIIDINEEVEEGWWSGHLNNKLGLFPSNFVKELEVTD [T41H] showed an abundance fitness of -0.158 ± 0.25. For KKRQCKVLFEYIPQNEDELELKVGDIIDINEEVEEGWWSGILNNKLGLFPSNFVKELEVTD [T41I], the abundance fitness was -0.246 ± 0.19. In the case of KKRQCKVLFEYIPQNEDELELKVGDIIDINEEVEEGWWSGELNNKLGLFPSNFVKELEVTD [T41E], the abundance fitness is reported as -0.05 ± 0.17. For KKRQCKVLFEYIPQNEDELELKVGDIIDINEEVEEGWWSGGLNNKLGLFPSNFVKELEVTD [T41G], the abundance fitness was -0.517 ± 0.15. KKRQCKVLFEYIPQNEDELELKVGDIIDINEEVEEGWWSGSLNNKLGLFPSNFVKELEVTD [T41S] showed an abundance fitness of -0.35 ± 0.15. KKRQCKVLFEYIPQNEDELELKVGDIIDINEEVEEGWWSGFLNNKLGLFPSNFVKELEVTD [T41F] showed an abundance fitness of -0.274 ± 0.2. Work on KKRQCKVLFEYIPQNEDELELKVGDIIDINEEVEEGWWSGWLNNKLGLFPSNFVKELEVTD [T41W] yielded an abundance fitness of 0.016 ± 0.17. With KKRQCKVLFEYIPQNEDELELKVGDIIDINEEVEEGWWKGTLNNKLGLFPSNFVKELEVTD [S39K] the abundance fitness was 0.166 ± 0.091. For KKRQCKVLFEYIPQNEDELELKVGDIIDINEEVEEGWWQGTLNNKLGLFPSNFVKELEVTD [S39Q], the abundance fitness was -0.217 ± 0.097. Work on KKRQCKVLFEYIPQNEDELELKVGDIIDINEEVEEGWWHGTLNNKLGLFPSNFVKELEVTD [S39H] yielded an abundance fitness of -0.085 ± 0.15. Variant KKRQCKVLFEYIPQNEDELELKVGDIIDINEEVEEGWWPGTLNNKLGLFPSNFVKELEVTD [S39P] has an abundance fitness of -1.1 ± 0.33. KKRQCKVLFEYIPQNEDELELKVGDIIDINEEVEEGWWDGTLNNKLGLFPSNFVKELEVTD [S39D] showed an abundance fitness of -0.696 ± 0.28. KKRQCKVLFEYIPQNEDELELKVGDIIDINEEVEEGWWVGTLNNKLGLFPSNFVKELEVTD [S39V] showed an abundance fitness of 0.094 ± 0.074. KKRQCKVLFEYIPQNEDELELKVGDIIDINEEVEEGWWMGTLNNKLGLFPSNFVKELEVTD [S39M] showed an abundance fitness of -0.126 ± 0.093. Work on KKRQCKVLFEYIPQNEDELELKVGDIIDINEEVEEGWWGGTLNNKLGLFPSNFVKELEVTD [S39G] yielded an abundance fitness of -0.459 ± 0.11. KKRQCKVLFEYIPQNEDELELKVGDIIDINEEVEEGWWEGTLNNKLGLFPSNFVKELEVTD [S39E] gave an abundance fitness of -0.097 ± 0.15. Variant KKRQCKVLFEYIPQNEDELELKVGDIIDINEEVEEGWWLGTLNNKLGLFPSNFVKELEVTD [S39L] has an abundance fitness of 0.057 ± 0.061. Work on KKRQCKVLFEYIPQNEDELELKVGDIIDINEEVEEGWWYGTLNNKLGLFPSNFVKELEVTD [S39Y] yielded an abundance fitness of -0.257 ± 0.12. KKRQCKVLFEYIPQNEDELELKVGDIIDINEEVEEGWWTGTLNNKLGLFPSNFVKELEVTD [S39T] showed an abundance fitness of -0.06 ± 0.084. With KKRQCKVLFEYIPQNEDELELKVGDIIDINEEVEEGWWWGTLNNKLGLFPSNFVKELEVTD [S39W] the abundance fitness was -0.03 ± 0.12. Variant KKRQCKVLFEYIPQNEDELELKVGDIIDINEEVEEGWWAGTLNNKLGLFPSNFVKELEVTD [S39A] has an abundance fitness of -0.349 ± 0.11. With KKRQCKVLFEYIPQNEDELELKVGDIIDINEEVEEGWWNGTLNNKLGLFPSNFVKELEVTD [S39N] the abundance fitness was -0.25 ± 0.11. With KKRQCKVLFEYIPQNEDELELKVGDIIDINEEVEEGWWSSTLNNKLGLFPSNFVKELEVTD [G40S] the abundance fitness was -0.92 ± 0.24. In the case of KKRQCKVLFEYIPQNEDELELKVGDIIDINEEVEEGWWSATLNNKLGLFPSNFVKELEVTD [G40A], the abundance fitness is reported as -0.747 ± 0.47. Work on KKRQCKVLFEYIPQNEDELELKVGDIIDINEEVEEGWWSLTLNNKLGLFPSNFVKELEVTD [G40L] yielded an abundance fitness of -1.17 ± 0.29. With KKRQCKVLFEYIPQNEDELELKVGDIIDINEEVEEGWWSTTLNNKLGLFPSNFVKELEVTD [G40T] the abundance fitness was -1.02 ± 0.5. KKRQCKVLFEYIPQNEDELELKVGDIIDINEEVEEGWWSVTLNNKLGLFPSNFVKELEVTD [G40V] gave an abundance fitness of -0.306 ± 0.14. KKRQCKVLFEYIPQNEDELELKVGDIIDINEEVEEGWWSQTLNNKLGLFPSNFVKELEVTD [G40Q] showed an abundance fitness of -1.03 ± 0.43. For KKRQCKVLFEYIPQNEDELELKVGDIIDINEEVEEGWWSCTLNNKLGLFPSNFVKELEVTD [G40C], the abundance fitness was -0.664 ± 0.14. Variant KKRQCKVLFEYIPQNEDELELKVGDIIDINEEVEEGWWSWTLNNKLGLFPSNFVKELEVTD [G40W] has an abundance fitness of -0.668 ± 0.16. KKRQCKVLFEYIPQNEDELELKVGDIIDINEEVEEGWWSFTLNNKLGLFPSNFVKELEVTD [G40F] showed an abundance fitness of -0.477 ± 0.16. Work on KKRQCKVLFEYIPQNEDELELKVGDIIDINEEVEEGWWSGTENNKLGLFPSNFVKELEVTD [L42E] yielded an abundance fitness of -0.922 ± 0.34. KKRQCKVLFEYIPQNEDELELKVGDIIDINEEVEEGWWSGTFNNKLGLFPSNFVKELEVTD [L42F] gave an abundance fitness of -0.616 ± 0.23. Variant KKRQCKVLFEYIPQNEDELELKVGDIIDINEEVEEGWWSGTMNNKLGLFPSNFVKELEVTD [L42M] has an abundance fitness of -0.486 ± 0.23.
